Here are results for six molecules from patent US20240270846A1 (published 2024).

The chains are these.
B1: GLS3000 G89W one-arm antibody (antibody, human IgG1, kappa, L234A L235A, N297A, name in Kabat numbering)
light: DIVMTQSPLSLPVTPGEPASISCRSSQSLVHSNRNTYLHWYQQKPGQAPRLLIYKVSNRFSGVPDRFSGSGSGTDFTLKISRVEAEDVGVYYCWQGTQVPYTFGQGTKLEIKRTVAAPSVFIFPPSDEQLKSGTASVVCLLNNFYPREAKVQWKVDNALQSGNSQESVTEQDSKDSTYSLSSTLTLSKADYEKHKVYACEVTHQGLSSPVTKSFNRGEC
heavy: QVQLVESGGGVVQPGRSLRLSCAASGFTFSNAWMHWVRQAPGKGLEWVAQIKAKSNNYATYYAESVKGRFTISRDDSKNSLYLQMNSLKTEDTAVYYCRYVHYGAYYGVDAWGQGTTVTVSSASTKGPSVFPLAPSSKSTSGGTAALGCLVKDYFPEPVTVSWNSGALTSGVHTFPAVLQSSGLYSLSSVVTVPSSSLGTQTYICNVNHKPSNTKVDKKVEPKSCDKTHTCPPCPAPEAAGGPSVFLFPPKPKDTLMISRTPEVTCVVVDVSHEDPEVKFNWYVDGVEVHNAKTKPREEQYASTYRVVSVLTVLHQDWLNGKEYKCKVSNKALPAPIEKTISKAKGQPREPQVYTLPPSRCELTKNQVSLSCAVKGFYPSDIAVEWESNGQPENNYKTTPPVLDSDGSFFLVSKLTVDKSRWQQGNVFSCSVMHEALHNHYTQKSLSLSPDYKDDDDK
chain: EPKSSDKTHTCPPCPAPELLGGPSVFLFPPKPKDTLMISRTPEVTCVVVDVSHEDPEVKFNWYVDGVEVHNAKTKPREEQYNSTYRVVSVLTVLHQDWLNGKEYKCKVSNKALPAPIEKTISKAKGQPREPQVCTLPPSRDELTKNQVSLWCLVKGFYPSDIAVEWESNGQPENNYKTTPPVLDSDGSFFLYSKLTVDKSRWQQGNVFSCSVMHEALHNRYTQKSLSLSP
B2: GLS3000 G91S one-arm antibody (antibody, human IgG1, kappa, L234A L235A, N297A, name in Kabat numbering)
light: DIVMTQSPLSLPVTPGEPASISCRSSQSLVHSNRNTYLHWYQQKPGQAPRLLIYKVSNRFSGVPDRFSGSGSGTDFTLKISRVEAEDVGVYYCGQSTQVPYTFGQGTKLEIKRTVAAPSVFIFPPSDEQLKSGTASVVCLLNNFYPREAKVQWKVDNALQSGNSQESVTEQDSKDSTYSLSSTLTLSKADYEKHKVYACEVTHQGLSSPVTKSFNRGEC
heavy: QVQLVESGGGVVQPGRSLRLSCAASGFTFSNAWMHWVRQAPGKGLEWVAQIKAKSNNYATYYAESVKGRFTISRDDSKNSLYLQMNSLKTEDTAVYYCRYVHYGAYYGVDAWGQGTTVTVSSASTKGPSVFPLAPSSKSTSGGTAALGCLVKDYFPEPVTVSWNSGALTSGVHTFPAVLQSSGLYSLSSVVTVPSSSLGTQTYICNVNHKPSNTKVDKKVEPKSCDKTHTCPPCPAPEAAGGPSVFLFPPKPKDTLMISRTPEVTCVVVDVSHEDPEVKFNWYVDGVEVHNAKTKPREEQYASTYRVVSVLTVLHQDWLNGKEYKCKVSNKALPAPIEKTISKAKGQPREPQVYTLPPSRCELTKNQVSLSCAVKGFYPSDIAVEWESNGQPENNYKTTPPVLDSDGSFFLVSKLTVDKSRWQQGNVFSCSVMHEALHNHYTQKSLSLSPDYKDDDDK
chain: EPKSSDKTHTCPPCPAPELLGGPSVFLFPPKPKDTLMISRTPEVTCVVVDVSHEDPEVKFNWYVDGVEVHNAKTKPREEQYNSTYRVVSVLTVLHQDWLNGKEYKCKVSNKALPAPIEKTISKAKGQPREPQVCTLPPSRDELTKNQVSLWCLVKGFYPSDIAVEWESNGQPENNYKTTPPVLDSDGSFFLYSKLTVDKSRWQQGNVFSCSVMHEALHNRYTQKSLSLSP
B3: GLS3000 G91D one-arm antibody (antibody, human IgG1, kappa, L234A L235A, N297A, name in Kabat numbering)
light: DIVMTQSPLSLPVTPGEPASISCRSSQSLVHSNRNTYLHWYQQKPGQAPRLLIYKVSNRFSGVPDRFSGSGSGTDFTLKISRVEAEDVGVYYCGQDTQVPYTFGQGTKLEIKRTVAAPSVFIFPPSDEQLKSGTASVVCLLNNFYPREAKVQWKVDNALQSGNSQESVTEQDSKDSTYSLSSTLTLSKADYEKHKVYACEVTHQGLSSPVTKSFNRGEC
heavy: QVQLVESGGGVVQPGRSLRLSCAASGFTFSNAWMHWVRQAPGKGLEWVAQIKAKSNNYATYYAESVKGRFTISRDDSKNSLYLQMNSLKTEDTAVYYCRYVHYGAYYGVDAWGQGTTVTVSSASTKGPSVFPLAPSSKSTSGGTAALGCLVKDYFPEPVTVSWNSGALTSGVHTFPAVLQSSGLYSLSSVVTVPSSSLGTQTYICNVNHKPSNTKVDKKVEPKSCDKTHTCPPCPAPEAAGGPSVFLFPPKPKDTLMISRTPEVTCVVVDVSHEDPEVKFNWYVDGVEVHNAKTKPREEQYASTYRVVSVLTVLHQDWLNGKEYKCKVSNKALPAPIEKTISKAKGQPREPQVYTLPPSRCELTKNQVSLSCAVKGFYPSDIAVEWESNGQPENNYKTTPPVLDSDGSFFLVSKLTVDKSRWQQGNVFSCSVMHEALHNHYTQKSLSLSPDYKDDDDK
chain: EPKSSDKTHTCPPCPAPELLGGPSVFLFPPKPKDTLMISRTPEVTCVVVDVSHEDPEVKFNWYVDGVEVHNAKTKPREEQYNSTYRVVSVLTVLHQDWLNGKEYKCKVSNKALPAPIEKTISKAKGQPREPQVCTLPPSRDELTKNQVSLWCLVKGFYPSDIAVEWESNGQPENNYKTTPPVLDSDGSFFLYSKLTVDKSRWQQGNVFSCSVMHEALHNRYTQKSLSLSP
B4: GLS3000 G91E one-arm antibody (antibody, human IgG1, kappa, L234A L235A, N297A, name in Kabat numbering)
light: DIVMTQSPLSLPVTPGEPASISCRSSQSLVHSNRNTYLHWYQQKPGQAPRLLIYKVSNRFSGVPDRFSGSGSGTDFTLKISRVEAEDVGVYYCGQETQVPYTFGQGTKLEIKRTVAAPSVFIFPPSDEQLKSGTASVVCLLNNFYPREAKVQWKVDNALQSGNSQESVTEQDSKDSTYSLSSTLTLSKADYEKHKVYACEVTHQGLSSPVTKSFNRGEC
heavy: QVQLVESGGGVVQPGRSLRLSCAASGFTFSNAWMHWVRQAPGKGLEWVAQIKAKSNNYATYYAESVKGRFTISRDDSKNSLYLQMNSLKTEDTAVYYCRYVHYGAYYGVDAWGQGTTVTVSSASTKGPSVFPLAPSSKSTSGGTAALGCLVKDYFPEPVTVSWNSGALTSGVHTFPAVLQSSGLYSLSSVVTVPSSSLGTQTYICNVNHKPSNTKVDKKVEPKSCDKTHTCPPCPAPEAAGGPSVFLFPPKPKDTLMISRTPEVTCVVVDVSHEDPEVKFNWYVDGVEVHNAKTKPREEQYASTYRVVSVLTVLHQDWLNGKEYKCKVSNKALPAPIEKTISKAKGQPREPQVYTLPPSRCELTKNQVSLSCAVKGFYPSDIAVEWESNGQPENNYKTTPPVLDSDGSFFLVSKLTVDKSRWQQGNVFSCSVMHEALHNHYTQKSLSLSPDYKDDDDK
chain: EPKSSDKTHTCPPCPAPELLGGPSVFLFPPKPKDTLMISRTPEVTCVVVDVSHEDPEVKFNWYVDGVEVHNAKTKPREEQYNSTYRVVSVLTVLHQDWLNGKEYKCKVSNKALPAPIEKTISKAKGQPREPQVCTLPPSRDELTKNQVSLWCLVKGFYPSDIAVEWESNGQPENNYKTTPPVLDSDGSFFLYSKLTVDKSRWQQGNVFSCSVMHEALHNRYTQKSLSLSP
B5: GLS3000 G91P one-arm antibody (antibody, human IgG1, kappa, L234A L235A, N297A, name in Kabat numbering)
light: DIVMTQSPLSLPVTPGEPASISCRSSQSLVHSNRNTYLHWYQQKPGQAPRLLIYKVSNRFSGVPDRFSGSGSGTDFTLKISRVEAEDVGVYYCGQPTQVPYTFGQGTKLEIKRTVAAPSVFIFPPSDEQLKSGTASVVCLLNNFYPREAKVQWKVDNALQSGNSQESVTEQDSKDSTYSLSSTLTLSKADYEKHKVYACEVTHQGLSSPVTKSFNRGEC
heavy: QVQLVESGGGVVQPGRSLRLSCAASGFTFSNAWMHWVRQAPGKGLEWVAQIKAKSNNYATYYAESVKGRFTISRDDSKNSLYLQMNSLKTEDTAVYYCRYVHYGAYYGVDAWGQGTTVTVSSASTKGPSVFPLAPSSKSTSGGTAALGCLVKDYFPEPVTVSWNSGALTSGVHTFPAVLQSSGLYSLSSVVTVPSSSLGTQTYICNVNHKPSNTKVDKKVEPKSCDKTHTCPPCPAPEAAGGPSVFLFPPKPKDTLMISRTPEVTCVVVDVSHEDPEVKFNWYVDGVEVHNAKTKPREEQYASTYRVVSVLTVLHQDWLNGKEYKCKVSNKALPAPIEKTISKAKGQPREPQVYTLPPSRCELTKNQVSLSCAVKGFYPSDIAVEWESNGQPENNYKTTPPVLDSDGSFFLVSKLTVDKSRWQQGNVFSCSVMHEALHNHYTQKSLSLSPDYKDDDDK
chain: EPKSSDKTHTCPPCPAPELLGGPSVFLFPPKPKDTLMISRTPEVTCVVVDVSHEDPEVKFNWYVDGVEVHNAKTKPREEQYNSTYRVVSVLTVLHQDWLNGKEYKCKVSNKALPAPIEKTISKAKGQPREPQVCTLPPSRDELTKNQVSLWCLVKGFYPSDIAVEWESNGQPENNYKTTPPVLDSDGSFFLYSKLTVDKSRWQQGNVFSCSVMHEALHNRYTQKSLSLSP
B6: GLS3000 G91A one-arm antibody (antibody, human IgG1, kappa, L234A L235A, N297A, name in Kabat numbering)
light: DIVMTQSPLSLPVTPGEPASISCRSSQSLVHSNRNTYLHWYQQKPGQAPRLLIYKVSNRFSGVPDRFSGSGSGTDFTLKISRVEAEDVGVYYCGQATQVPYTFGQGTKLEIKRTVAAPSVFIFPPSDEQLKSGTASVVCLLNNFYPREAKVQWKVDNALQSGNSQESVTEQDSKDSTYSLSSTLTLSKADYEKHKVYACEVTHQGLSSPVTKSFNRGEC
heavy: QVQLVESGGGVVQPGRSLRLSCAASGFTFSNAWMHWVRQAPGKGLEWVAQIKAKSNNYATYYAESVKGRFTISRDDSKNSLYLQMNSLKTEDTAVYYCRYVHYGAYYGVDAWGQGTTVTVSSASTKGPSVFPLAPSSKSTSGGTAALGCLVKDYFPEPVTVSWNSGALTSGVHTFPAVLQSSGLYSLSSVVTVPSSSLGTQTYICNVNHKPSNTKVDKKVEPKSCDKTHTCPPCPAPEAAGGPSVFLFPPKPKDTLMISRTPEVTCVVVDVSHEDPEVKFNWYVDGVEVHNAKTKPREEQYASTYRVVSVLTVLHQDWLNGKEYKCKVSNKALPAPIEKTISKAKGQPREPQVYTLPPSRCELTKNQVSLSCAVKGFYPSDIAVEWESNGQPENNYKTTPPVLDSDGSFFLVSKLTVDKSRWQQGNVFSCSVMHEALHNHYTQKSLSLSPDYKDDDDK
chain: EPKSSDKTHTCPPCPAPELLGGPSVFLFPPKPKDTLMISRTPEVTCVVVDVSHEDPEVKFNWYVDGVEVHNAKTKPREEQYNSTYRVVSVLTVLHQDWLNGKEYKCKVSNKALPAPIEKTISKAKGQPREPQVCTLPPSRDELTKNQVSLWCLVKGFYPSDIAVEWESNGQPENNYKTTPPVLDSDGSFFLYSKLTVDKSRWQQGNVFSCSVMHEALHNRYTQKSLSLSP

The target of this assay is T1, CD3 epsilon homodimer protein (UniProt P07766 23-126).
T1 construct: Construct of the homodimer is not described; also called CD3 (CD3 epsilon)
T1 sequence (P07766 23-126): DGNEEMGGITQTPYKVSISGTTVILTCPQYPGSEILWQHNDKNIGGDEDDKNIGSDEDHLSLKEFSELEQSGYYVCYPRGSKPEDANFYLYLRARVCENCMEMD
In words: SPR Biacore T200, CD3e homodimer on chip, antibody analyte.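 Also: CD3 epsilon homodimer amine-coupled on CM4 sensor chip, antibodies injected as analyte at 25 °C in HBS-EP+, ratio ≥0.8 taken as binding retained versus unaltered parent antibody.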 Background: In SPR one partner is held on a chip, and binding of the other changes the refractive index at the surface.
For the molecule B1, the “ratio of amounts bound (altered form/GLS3000)” value amounted to 0.5. Consider B2, for which the “ratio of amounts bound (altered form/GLS3000)” value is 0.26.

Consider B3, for which the “ratio of amounts bound (altered form/GLS3000)” value was found to be 0.16. For the molecule B4, the “ratio of amounts bound (altered form/GLS3000)” value was determined as 0.16. Take B5: the “ratio of amounts bound (altered form/GLS3000)” value amounted to 0.27. Then B6, with 0.27.
